The values below are quoted from earlier work in paper PMC2478715.

Bounds are passed on as bounds.

The test system of this data set is HMGB1 (purified from mammalian source) (rat (liver nuclei), human (HeLa) or monkey (CV1); preparation per gel not specified). Briefly: cited value; method not stated here. The settings on record: 50 mM NaCl, 25 mM Tris-HCl pH 7.5, 1 mM DTT, 1 mM EDTA, 0.1% Triton X-100, 100 ug/mL BSA, 2% glycerol, 25 uL, 20 min at 37 C; 4% PAGE in 0.5x TBE at room ….

One may read the Kd as the concentration at which binding is half-saturated. With “hcDNA (hemicatenated DNA loop, 120 bp fragment)”, the Kd was less than 0.15 pM.
